Laboratory results taken from paper PMC10397247.
Read-outs that look alike come from different tables or passages of the source. Blank lines part the entries; values can stand above or below the binder they belong to.

How the values were obtained:
P7bH1 = biological target: T1, P7bH1; test: two-hybrid library CCNG1;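 further: natural log of median RNA to DNA barcode read ratio; higher means stronger binding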
T1 chain: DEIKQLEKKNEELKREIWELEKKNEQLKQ

P9bH1 = biological target: T2, P9bH1; test: two-hybrid library CCNG1;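 further: natural log of median RNA to DNA barcode read ratio; higher means stronger binding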
T2 chain: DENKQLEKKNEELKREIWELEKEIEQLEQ

P4bH1 = biological target: T3, P4bH1; test: two-hybrid library CCNG1;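 further: natural log of median RNA to DNA barcode read ratio; higher means stronger binding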
T3 chain: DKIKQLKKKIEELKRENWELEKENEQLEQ

P8bH1 = biological target: T4, P8bH1; test: two-hybrid library CCNG1;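 further: natural log of median RNA to DNA barcode read ratio; higher means stronger binding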
T4 chain: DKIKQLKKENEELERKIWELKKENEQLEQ

P6bH1 = biological target: T5, P6bH1; test: two-hybrid library CCNG1
T5 chain: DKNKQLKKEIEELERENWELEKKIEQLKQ

P5bH1 = biological target: T6, P5bH1; test: two-hybrid library CCNG1
T6 chain: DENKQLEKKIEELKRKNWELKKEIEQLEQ

4H390-AA = biological target: T7, 4H390-AA; test: two-hybrid library CCmax; details: mean of both orientations
T7 chain: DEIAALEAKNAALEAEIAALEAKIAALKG

4H2687-AA = biological target: T8, 4H2687-AA; test: two-hybrid library CCmax; details: mean of both orientations
T8 chain: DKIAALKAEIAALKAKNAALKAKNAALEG

4H3940-AA = biological target: T9, 4H3940-AA; test: two-hybrid library CCmax; details: mean of both orientations
T9 chain: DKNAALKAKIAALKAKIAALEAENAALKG

4H278-AA = biological target: T10, 4H278-AA; test: two-hybrid library CCmax; details: mean of both orientations
T10 chain: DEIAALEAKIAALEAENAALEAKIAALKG

4H816-AA = biological target: T11, 4H816-AA; test: two-hybrid library CCmax; details: mean of both orientations
T11 chain: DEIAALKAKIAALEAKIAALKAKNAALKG

4H2705-AA = biological target: T12, 4H2705-AA; test: two-hybrid library CCmax
T12 chain: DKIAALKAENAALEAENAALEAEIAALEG

4H775-AA = biological target: T13, 4H775-AA; test: two-hybrid library CCmax; details: mean of both orientations
T13 chain: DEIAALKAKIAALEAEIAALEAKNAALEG

4H2646-AA = biological target: T14, 4H2646-AA; test: two-hybrid library CCmax
T14 chain: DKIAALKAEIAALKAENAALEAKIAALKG

4H87-AA = biological target: T15, 4H87-AA; test: two-hybrid library CCmax
T15 chain: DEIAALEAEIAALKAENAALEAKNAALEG

4H3409-AA = biological target: T16, 4H3409-AA; test: two-hybrid library CCmax; details: mean of both orientations
T16 chain: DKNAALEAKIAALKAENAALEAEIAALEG

4H510-AA = biological target: T17, 4H510-AA; test: two-hybrid library CCmax; details: mean of both orientations
T17 chain: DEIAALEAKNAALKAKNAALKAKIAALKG

4H2985-AA = biological target: T18, 4H2985-AA; test: two-hybrid library CCmax; details: mean of both orientations
T18 chain: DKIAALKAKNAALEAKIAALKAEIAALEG

4H2873-AA = biological target: T19, 4H2873-AA; test: two-hybrid library CCmax; details: mean of both orientations
T19 chain: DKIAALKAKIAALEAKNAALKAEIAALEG

4H2758-AA = biological target: T20, 4H2758-AA; test: two-hybrid library CCmax
T20 chain: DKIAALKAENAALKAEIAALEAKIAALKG

4H3134-AA = biological target: T21, 4H3134-AA; test: two-hybrid library CCmax; details: mean of both orientations
T21 chain: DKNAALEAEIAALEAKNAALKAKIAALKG

4H3625-AA = biological target: T22, 4H3625-AA; test: two-hybrid library CCmax; details: mean of both orientations
T22 chain: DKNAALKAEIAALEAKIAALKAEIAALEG

4H2512-AA = biological target: T23, 4H2512-AA; test: two-hybrid library CCmax
T23 chain: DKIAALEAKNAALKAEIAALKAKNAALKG

4H754-bA = biological target: T24, 4H754-bA; test: two-hybrid library CCNG1
T24 chain: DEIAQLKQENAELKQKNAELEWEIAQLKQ

4H918-bA = biological target: T25, 4H918-bA; test: two-hybrid library CCNG1
T25 chain: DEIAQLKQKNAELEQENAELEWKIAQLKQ

4H855-bA = biological target: T26, 4H855-bA; test: two-hybrid library CCNG1
T26 chain: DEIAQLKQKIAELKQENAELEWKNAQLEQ

4H780-bA = biological target: T27, 4H780-bA; test: two-hybrid library CCNG1
T27 chain: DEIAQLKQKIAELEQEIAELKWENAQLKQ

4H2627-bA = biological target: T28, 4H2627-bA; test: two-hybrid library CCNG1
T28 chain: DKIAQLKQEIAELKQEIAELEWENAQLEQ

4H3112-bA = biological target: T29, 4H3112-bA; test: two-hybrid library CCNG1
T29 chain: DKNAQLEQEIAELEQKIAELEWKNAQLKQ

4H4073-bA = biological target: T30, 4H4073-bA; test: two-hybrid library CCNG1
T30 chain: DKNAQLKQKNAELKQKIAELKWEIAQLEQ

4H346-bA = biological target: T31, 4H346-bA; test: two-hybrid library CCNG1
T31 chain: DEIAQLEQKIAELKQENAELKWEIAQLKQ

4H2673-bA = biological target: T32, 4H2673-bA; test: two-hybrid library CCNG1
T32 chain: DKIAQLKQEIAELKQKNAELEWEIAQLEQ

4H953-bA = biological target: T33, 4H953-bA; test: two-hybrid library CCNG1
T33 chain: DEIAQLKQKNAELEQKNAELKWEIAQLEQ

4H797-bA = biological target: T34, 4H797-bA; test: two-hybrid library CCNG1
T34 chain: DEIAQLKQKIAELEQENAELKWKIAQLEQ

4H2702-bA = biological target: T35, 4H2702-bA; test: two-hybrid library CCNG1
T35 chain: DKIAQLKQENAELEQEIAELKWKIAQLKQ

4H3427-bA = biological target: T36, 4H3427-bA; test: two-hybrid library CCNG1
T36 chain: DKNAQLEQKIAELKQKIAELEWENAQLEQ

4H575-bA = biological target: T37, 4H575-bA; test: two-hybrid library CCNG1
T37 chain: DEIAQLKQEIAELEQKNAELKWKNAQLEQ

4H3926-bA = biological target: T38, 4H3926-bA; test: two-hybrid library CCNG1
T38 chain: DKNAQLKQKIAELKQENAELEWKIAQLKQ

4H683-bA = biological target: T39, 4H683-bA; test: two-hybrid library CCNG1
T39 chain: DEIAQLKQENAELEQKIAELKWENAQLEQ

4H457-bA = biological target: T40, 4H457-bA; test: two-hybrid library CCNG1; details: mean of both orientations
T40 chain: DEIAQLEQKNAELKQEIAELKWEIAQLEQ

4H968-bA = biological target: T41, 4H968-bA; test: two-hybrid library CCNG1
T41 chain: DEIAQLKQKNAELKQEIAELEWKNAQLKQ

4H3010-bA = biological target: T42, 4H3010-bA; test: two-hybrid library CCNG1
T42 chain: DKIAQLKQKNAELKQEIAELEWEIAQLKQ

O15-bA = biological target: T43, O15-bA; test: two-hybrid library CCNG1
T43 chain: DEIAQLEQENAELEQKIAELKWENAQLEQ

4H967-bA = biological target: T44, 4H967-bA; test: two-hybrid library CCNG1
T44 chain: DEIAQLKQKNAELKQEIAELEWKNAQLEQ

Binder: DKIAALEAKNAALKAEIAALKAKNAALKG [4H2512-AA]
interaction score (4H390-AA): 0.0427
interaction score (4H2687-AA): -1.95
interaction score (4H3940-AA): -1.72
interaction score (4H278-AA): 2.22
interaction score (4H816-AA): -1.79
interaction score (4H2705-AA): -0.766
interaction score (4H775-AA): -1.11
interaction score (4H2646-AA; mean of both orientations): -1.05
interaction score (4H87-AA; mean of both orientations): -0.485
interaction score (4H3409-AA): 1.21
interaction score (4H510-AA): -1.85
interaction score (4H2512-AA): 0.206
interaction score (4H2985-AA): 0.303
interaction score (4H2873-AA): -1.36
interaction score (4H2758-AA): -0.837
interaction score (4H3134-AA): -0.978
interaction score (4H3625-AA): -1.5

Binder: DKIAQLKQEIAELKQEIAELEWENAQLEQ [4H2627-bA]
interaction score (4H754-bA): -1.42
interaction score (4H918-bA): -1.03
interaction score (4H855-bA): -1.42
interaction score (4H780-bA): -0.421
interaction score (4H2627-bA): 0.441
interaction score (4H3112-bA): 0.764
interaction score (4H4073-bA): 1.07
interaction score (4H346-bA): -1.21
interaction score (4H2673-bA): -0.531
interaction score (4H953-bA): -0.555
interaction score (4H797-bA): -1.1
interaction score (4H2702-bA): 0.286
interaction score (4H3427-bA): 1.03
interaction score (4H575-bA): 0.64
interaction score (4H3926-bA): -0.308
interaction score (4H683-bA): -0.856
interaction score (4H457-bA): -0.508
interaction score (4H968-bA): -0.842
interaction score (4H3010-bA): -0.0123

Binder: DEIAQLKQKNAELKQEIAELEWKNAQLEQ [4H967-bA]
interaction score (O15-bA): 1.66
interaction score (4H967-bA): -0.153

The next lines start with the values.

interaction score (P7bH1): -0.994
interaction score (P9bH1): -0.46
interaction score (P4bH1): -1.18
interaction score (P8bH1): -0.993
interaction score (P6bH1): -0.487
interaction score (P5bH1): -1.09
Binder: DKIKQLKKKIEELKRENWELEKENEQLEQ [P4bH1]

interaction score (4H390-AA): 1.18
interaction score (4H2687-AA): 1.36
interaction score (4H3940-AA): -1.27
interaction score (4H278-AA): 0.745
interaction score (4H816-AA): -1.37
interaction score (4H2705-AA; mean of both orientations): -1.19
interaction score (4H775-AA): -0.478
interaction score (4H2646-AA): 1.66
interaction score (4H87-AA): 2.43
interaction score (4H3409-AA): -0.0843
interaction score (4H510-AA): 2.02
interaction score (4H2985-AA): -0.411
interaction score (4H2873-AA): 1.89
interaction score (4H2758-AA; mean of both orientations): -0.75
interaction score (4H3134-AA): 1.28
interaction score (4H3625-AA): -0.363
Binder: DKIAALKAEIAALKAENAALEAKIAALKG [4H2646-AA]
